These results are taken from patent publication US20220119534A1 (DRAGONFLY THERAPEUTICS, published 2022).

Residue numbers refer to the chain shown, from its start.

The target of experiment [1] is T1, Human CLEC12A-His (human, UniProt Q5QGZ9 65-265).
T1 sequence: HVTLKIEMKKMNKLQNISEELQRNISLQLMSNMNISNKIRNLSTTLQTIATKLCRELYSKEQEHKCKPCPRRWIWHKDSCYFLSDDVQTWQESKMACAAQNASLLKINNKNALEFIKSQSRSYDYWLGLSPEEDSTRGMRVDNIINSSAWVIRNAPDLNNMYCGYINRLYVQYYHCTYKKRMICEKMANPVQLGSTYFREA
The experiment in a line: cell-based or functional assay.

The target of experiment [2] is T1, Human CLEC12A-His. The experiment in a line: SPR Biacore 8K 37 C; TriNKET captured on anti-hFc chip, hCLEC12A-His as analyte; two-state fit, kd2. A general note: SPR reads the build-up and loss of mass on a sensor chip optically.
For experiment [3], the target named is T1, Human CLEC12A-His. The experiment in a line: SPR Biacore 8K 37 C; TriNKET captured on anti-hFc chip, hCLEC12A-His as analyte; two-state fit; two-state fit.
Experiment [4] deals with T1, Human CLEC12A-His. Nature of the experiment: SPR Biacore 8K 37 C; TriNKET captured on anti-hFc chip, hCLEC12A-His as analyte; two-state fit, kd1; two-state fit; kd1.
Experiment [5] addresses T1, Human CLEC12A-His. Nature of the experiment: SPR Biacore 8K 37 C; TriNKET captured on anti-hFc chip, hCLEC12A-His as analyte; two-state fit, ka1 only; two-state fit; ka1 only.
Experiment [6] has as its target T2, recombinant human CD16a V158 (human, UniProt P08637 17-208, biotinylated).
T2 construct: also called FcγRIIIa V158; hCD16aV
The experiment in a line: SPR.

The target in a further experiment is T3, recombinant human CD16b (human, UniProt O75015 17-200, limits assumed, biotinylated).
T3 construct: also called FcγRIIIb
T3 sequence (O75015 17-200 limits assumed): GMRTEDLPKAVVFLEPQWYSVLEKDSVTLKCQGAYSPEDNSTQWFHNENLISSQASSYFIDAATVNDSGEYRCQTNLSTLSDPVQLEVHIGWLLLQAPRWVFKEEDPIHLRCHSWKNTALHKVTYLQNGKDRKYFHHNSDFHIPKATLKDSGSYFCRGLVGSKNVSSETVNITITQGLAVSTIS
Nature of the experiment: SPR.

The target in experiment [7] is T4, recombinant cynomolgus CLEC12A-His (cynomolgus monkey, UniProt A0A2K5WXQ4 71-271).
T4 construct: also called cCLEC12A-His; cCLEC12A
T4 sequence: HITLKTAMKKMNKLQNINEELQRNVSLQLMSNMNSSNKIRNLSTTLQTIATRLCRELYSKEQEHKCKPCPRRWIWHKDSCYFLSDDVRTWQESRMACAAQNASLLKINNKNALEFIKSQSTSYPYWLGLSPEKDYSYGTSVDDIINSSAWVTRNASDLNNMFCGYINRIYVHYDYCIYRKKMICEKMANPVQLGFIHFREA
The experiment in a line: SPR 37C.

The target in experiment [8] is T5, recombinant human CLEC12A-His (human, UniProt Q5QGZ9 65-265).
T5 construct: also called hCLEC12A-His; hCLEC12A
T5 sequence: T1 sequence
Nature of the experiment: SPR, CLEC12A binding.

Experiment [9] deals with T6, human CLEC12A expressed on cells (human, UniProt Q5QGZ9 1-265).
T6 construct: Transduced isogenic cells or endogenous expression on AML cells; also called RMA-hCLEC12A; Ba/F3-hCLEC12A
T6 sequence: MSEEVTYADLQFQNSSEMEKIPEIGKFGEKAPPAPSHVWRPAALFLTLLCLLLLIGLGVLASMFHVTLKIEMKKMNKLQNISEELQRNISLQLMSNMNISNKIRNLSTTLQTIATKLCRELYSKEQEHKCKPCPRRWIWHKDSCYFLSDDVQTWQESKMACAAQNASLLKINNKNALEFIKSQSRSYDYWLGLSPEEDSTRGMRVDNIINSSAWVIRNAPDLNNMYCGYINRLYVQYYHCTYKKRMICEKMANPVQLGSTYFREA
Nature of the experiment: flow cytometry on CLEC12A+ PL-21 AML cells. On the technique in general: A flow cytometer gives signals particle by particle.

Experiment [10] concerns the target T6, human CLEC12A expressed on cells. Nature of the experiment: flow cytometry on PL-21 cells, fold over background.
Experimental: (§1) The cells were then incubated with a fluorophore conjugated anti-human IgG secondary antibody and were analyzed by flow cytometry. The mean fluorescence intensity (MFI) values were normalized to secondary antibody only controls to obtain fold over background (FOB) values.
100,000 cells were seeded per well into a 96-well plate for FACS staining. Cells were washed with PBS. Cells were incubated in a 1:2000 dilution of live/dead dye in PBS for 15 minutes, then washed with FACS buffer. TriNKETs or mAbs were diluted into FACS buffer, and 50 μl containing diluted TriNKET or mAb was added to cells. Cells were incubated on ice for 20 minutes. After the incubation, cells were washed with FACS buffer. Anti-human IgG-Fc secondary antibody was diluted into FACS buffer, and 50 μl was added per well for detection of the bound TriNKETs or mAbs. Cells were incubated for 20 minutes on ice, then washed with FACS buffer. 50 μl of fixation buffer was added to each well, and cells were incubated for 10 minutes at room temperature. […] Within the live gate, the mean fluorescence intensity (MFI) of each sample and the secondary-only control was calculated. Fold-over-background (FOB) was calculated as the ratio of test article MFI over secondary-only background MFI. […]
For the next experiment, the target named is T7, human CLEC12A-K244Q-His (human, UniProt Q5QGZ9 65-265).
T7 construct: Polymorphic variant; also called hCLEC12A-K244Q; CLEC12A (Q244)
T7 chain: T1 sequence with K180Q
The experiment in a line: SPR.

For experiment [11], the target named is T5, recombinant human CLEC12A-His. Nature of the experiment: SPR.
Experiment [12] deals with T6, human CLEC12A expressed on cells. The experiment in a line: flow cytometry, HL60.
In experiment [13] the target is T5, recombinant human CLEC12A-His. Nature of the experiment: SPR screening, semi-purified.
In experiment [14] the target is T6, human CLEC12A expressed on cells. The experiment in a line: flow cytometry, hCLEC12A+ Ba/F3.
The target is the same in experiment [15]. Nature of the experiment: flow cytometry on HL-60 cells, fold over background.
Experimental: as §1
100,000 cells were seeded per well into a 96-well plate for FACS staining. Cells were washed with PBS. Cells were incubated in a 1:2000 dilution of live/dead dye in PBS for 15 minutes, then washed with FACS buffer. TriNKETs or mAbs were diluted into FACS buffer, and 50 μl containing diluted TriNKET or mAb was added to cells. Cells were incubated on ice for 20 minutes. After the incubation, cells were washed with FACS buffer. Anti-human IgG-Fc secondary antibody was diluted into FACS buffer, and 50 μl was added per well for detection of the bound TriNKETs or mAbs. Cells were incubated for 20 minutes on ice, then washed with FACS buffer. 50 μl of fixation buffer was added to each well, and cells were incubated for 10 minutes at room temperature. Cells were washed with FACS buffer and resuspended in FACS buffer for analysis with BD FACS Celesta SN #H66034400085, or BD FACS Celesta SN #H66034400160. Cells of interest were identified using FSC vs. SSC plot, and an appropriately shaped gate was drawn around the cells. Within the gated cells, doublet cells were removed by viewing FSC-H vs FSC-A plot. Within the single cell population, live cells were gated. Within the live gate, the mean fluorescence intensity (MFI) of each sample and the secondary-only control was calculated. Fold-over-background (FOB) was calculated as the ratio of test article MFI over secondary-only background MFI. Data were fit to a four-parameter non-linear regression curve using GraphPad Prism 7.0.
Experiment [16] has as its target T5, recombinant human CLEC12A-His. Nature of the experiment: SPR; sensorgrams of a CLEC12A concentration series with fit overlays (response up to about 28, time axis 0 to about 900).
Experiment [17] has as its target T6, human CLEC12A expressed on cells. Nature of the experiment: flow cytometry (MFI) on CLEC12A+ PL21 AML cells, about 0.04 to 27 nM, plateau about 1150 MFI; the molecule is assigned by panel order and legend paragraph 296.

T2 sequence (P08637 17-208 F176V limits assumed): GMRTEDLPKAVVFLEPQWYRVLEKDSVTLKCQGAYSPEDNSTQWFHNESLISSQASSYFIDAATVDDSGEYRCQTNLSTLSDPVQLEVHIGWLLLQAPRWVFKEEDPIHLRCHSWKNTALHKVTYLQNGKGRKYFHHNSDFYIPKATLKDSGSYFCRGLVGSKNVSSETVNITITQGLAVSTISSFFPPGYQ

B1: AB0053 (bispecific antibody)
chain 1: QLQLQESGPGLVKPSETLSLTCTVSGFSLTNYGLHWIRQPPGKCLEWIGVIWSGGKTDYNPSLKSRVTISKDTSKNQFSLKLSSVQAADTAVYYCAKYDYDDALDYWGQGTLVTVSSGGGGSGGGGSGGGGSGGGGSDIQMTQSPSSLSASVGDRVTITCHASQNINFWLSWYQQKPGKAPKLLIYEASNLHTGVPSRFSGSGSGTRFTLTISSLQPEDIATYYCQQSHSYPLTFGCGTKLEIKGSDKTHTCPPCPAPELLGGPSVFLFPPKPKDTLMISRTPEVTCVVVDVSHEDPEVKFNWYVDGVEVHNAKTKPREEQYNSTYRVVSVLTVLHQDWLNGKEYKCKVSNKALPAPIEKTISKAKGQPREPRVYTLPPCRDELTKNQVSLTCLVKGFYPSDIAVEWESNGQPENNYKTTPPVLVSDGSFTLYSKLTVDKSRWQQGNVFSCSVMHEALHNHYTQKSLSLSPG
chain 2: EVQLVESGGGLVKPGGSLRLSCAASGFTFSSYSMNWVRQAPGKGLEWVSSISSSSSYIYYADSVKGRFTISRDNAKNSLYLQMNSLRAEDTAVYYCARGAPIGAAAGWFDPWGQGTLVTVSSASTKGPSVFPLAPSSKSTSGGTAALGCLVKDYFPEPVTVSWNSGALTSGVHTFPAVLQSSGLYSLSSVVTVPSSSLGTQTYICNVNHKPSNTKVDKKVEPKSCDKTHTCPPCPAPELLGGPSVFLFPPKPKDTLMISRTPEVTCVVVDVSHEDPEVKFNWYVDGVEVHNAKTKPREEQYNSTYRVVSVLTVLHQDWLNGKEYKCKVSNKALPAPIEKTISKAKGQPREPQVCTLPPSRDELTENQVSLTCLVKGFYPSDIAVEWESNGQPENNYKTTPPVLDSDGSFFLYSWLTVDKSRWQQGNVFSCSVMHEALHNHYTQKSLSLSPG
chain 3: DIQMTQSPSSVSASVGDRVTITCRASQGISSWLAWYQQKPGKAPKLLIYAASSLQSGVPSRFSGSGSGTDFTLTISSLQPEDFATYYCQQGVSFPRTFGGGTKVEIKRTVAAPSVFIFPPSDEQLKSGTASVVCLLNNFYPREAKVQWKVDNALQSGNSQESVTEQDSKDSTYSLSSTLTLSKADYEKHKVYACEVTHQGLSSPVTKSFNRGEC
By koff is commonly meant the rate constant with which the complex falls apart. As usually defined, the Kd is the equilibrium constant for the complex coming apart. Usually kon stands for a measure of how fast the partners come together. For B1, in the experiment with Human CLEC12A-His [1], the “EC50 (nM), KHYG-1-CD16aV cytotoxicity assay, PL-21 cells” value was determined as 0.39 nM. Also, the koff is 0.000949 s⁻¹ in the experiment with Human CLEC12A-His [2] and 0.0157 s⁻¹ with Human CLEC12A-His [4]. This molecule registered a Kd in the experiment with Human CLEC12A-His [3] of 2410 pM. The kon with Human CLEC12A-His [5] is 1.63e+06 M⁻¹ s⁻¹.

B2: AB0089 TriNKET (other)
chain: B1 chain 1 with S53V, K56A, K71V, Y98G, D101G, A103T, R207D, I220F
heavy: B1 chain 2
light: B1 chain 3
As usually defined, the EC50 is the concentration needed to bring the measured effect to its halfway point. For orientation: EC50 (read off the curve) means the midpoint of the concentration-response curve. A high value points to a less potent agent. In the case of B2, the “fold difference in affinity vs trastuzumab” value in experiment [6] was found to be 3.8 fold; with recombinant human CD16b, 2.3 fold. Further, the binding result in [7] is “no binding (tested: 100 nM)”. The equilibrium dissociation constant (Kd) in [8] worked out at 800 pM. Further, the 50% effective concentration (EC50) in [9] is 450 pM. In addition, in experiment [10], the half-maximal effective concentration (EC50 (read off the curve)) is roughly 500 pM.

B3: AB0192 TriNKET (other)
chain: EVQLVESGGGVVQPGGSLRLSCAASGFTFNAFGMHWVRQAPGKCLEWVAFISSGSTSIYYANTVKGRFTISRDNSKNTLYLQMNSLRAEDTAVYYCARDGYPTGGAMDYWGQGTSVTVSSGGGGSGGGGSGGGGSGGGGSDIQMTQSPSSLSASVGDRVTITCKASQDIYNYLSWFQQKPGKAPKPLIYRANILVSGVPSRFSGSGSGQDYTFTISSLQPEDIATYYCLQFDAFPFTFGCGTKLEIKGSDKTHTCPPCPAPELLGGPSVFLFPPKPKDTLMISRTPEVTCVVVDVSHEDPEVKFNWYVDGVEVHNAKTKPREEQYNSTYRVVSVLTVLHQDWLNGKEYKCKVSNKALPAPIEKTISKAKGQPREPRVYTLPPCRDELTKNQVSLTCLVKGFYPSDIAVEWESNGQPENNYKTTPPVLVSDGSFTLYSKLTVDKSRWQQGNVFSCSVMHEALHNHYTQKSLSLSPG
heavy: B1 chain 2
light: B1 chain 3
notes: Humanized 9F11.B7 scFv-Fc, A49MI Fab-Fc
For the molecule B3, the “fold difference in affinity vs trastuzumab” value in [6] is roughly 2 fold. For the same molecule, in the experiment with human CLEC12A-K244Q-His, the “fold difference in affinity vs CLEC12A WT” value is no more than 2.5 fold. The binding result in experiment [7] is recorded as “no binding (tested: 100 nM)”. The dissociation constant (Kd) worked out at 1200 pM in experiment [11], 1260 pM in [13] and 1660 pM in [16]. The concentration giving a half-maximal response (EC50) was determined as 600 pM in experiment [12], 700 pM in experiment [14] and 270 pM in experiment [17]. The “Max binding MFI” value in experiment [12] amounted to 503 MFI; in experiment [14] it was 10200 MFI. Also, in experiment [13], the dissociation rate constant (koff) was determined as 0.00138 s⁻¹. Also, in experiment [13], the on-rate (kon) was 1.09e+06 M⁻¹ s⁻¹. Moreover, the 50% effective concentration (EC50 (read off the curve)) in [15] is roughly 1000 pM.
